Experimental data from the nanobody polyreactivity screen of Harvey et al. (2022).

Assay: yeast display, Sf9 membrane polyspecificity reagent, FACS + sequencing; frameworks hold sequencing errors
Method in brief: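 Genes from sorted yeast were amplified by colony PCR, read by MiSeq 2 × 250 sequencing and filtered on CDR length. These cells carried a synthetic nanobody library in Saccharomyces cerevisiae BJ5465 and were sorted by FACS into low and high (top ~1%) gates on anti-HA and streptavidin fluorescence. Polyreactivity is labelled according to the gate of origin.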

Sequence	polyreactivity (PSR sort gate)
QVQLVESGGGLVQAGGSLPLSCAASGRTIDHYAMGWYRQAPGKERELVAAITSGGSTYYADSVKGRFTISRDNAKNTVYLQMNSLKPEDTAVYYCNKDSSFWGYYIAQVNERDYWGQGTQVTVSS	low polyreactivity
QVQLVESGGGLVQAGGSLPLSCAASGRTYRYYAMGWYRQAPGKERELVAAITRRSGNTNYADSVKGRFTISRDNAKNTVYLQINSLKPEDTALYYCAAVGAKGARYDYWGQGTQVTVSS	high polyreactivity
QVQLVESGGGLVQAGGSLPLSCAASGSIFQLNAMGWYRQAPGKERELVGSIRDGGSTSYADSVKGRFTISRDNAKNTVYLQMNSLKPADTAVYYCADLKLYIYDYWGQGTQVTVSS	high polyreactivity
QVQLVESGGGLVQAGGSLPLSCAASGSIFTYNTMGSYRQAPGKERELVATISWSGGRTYYADSVKGRVTISRDNAKNTVYLQMNSLKPEDTAVYYCAAVYYSYYGYFLPYGYWGQGTQVTVSS	high polyreactivity
QVQLVESGGGLVQAGGSLPLSCAASGSIFVGYAMGWYRQAPGKERELVAAITNSGGRTYYADSVKGRFTISRDNAKNTVYLQMNSLKPEDTAVYYCNRVTGKYRYWVGFEYWGQGTQVTVSS	high polyreactivity
QVQLVESGGGLVQAGGSLPLSCASSGSTFSTYAMGWYRQAPGKERELVAAIRWSGGSTYYADSVKGRFTLSRDNAKNTVYLLMTSLKPEDTAVYYCAKGIRRWYGGSDYWGQGTQVTVSS	low polyreactivity
QVQLVESGGGLVQAGGSLPLTCAASGRILRAYAMGWYRQAPGNEMELVAAISFSGGSTYYADSVKGRFTISRDYAKNYVYLQINSLKPEDTAVYYCNALYTSYYRPSCMGYWGQGTQVTVSS	high polyreactivity
QVQLVESGGGLVQAGGSLRFICAASGFSLYHYAMGWYRQAPGKERELVAAITTSGSRTYYADSVKGRFTISRDTAKITVYLQMNSLKPEDTAVYYCNAVASSTEYDYWGQGTQVTVSS	high polyreactivity
QVQLVESGGGLVQAGGSLRFICAASGNTLNYYTMGWYRQAPGKERELVAAISSSGGSTYYADSVKGRFTISRDNAKNTVYLQMNSLQPEDTAVYYCNASVINEMNYWGQGTQVTVSS	low polyreactivity
QVQLVESGGGLVQAGGSLRFSCAASGDTFTSYAMGWYRQAPGKERELVAAISRRGGSTYYADSVKGRFTISRDNAKNTVYLQMNSLKPEDTAVYYCAAKSYSYTEFDYWGQGTQVTVSS	high polyreactivity
QVQLVESGGGLVQAGGSLRFSCAASGFIFVSNAVGWYRQAPGKERELVAAISRRGGRTYYADSVKGRFTISRDNEKNTVYVPMNSLKPEDTAVYDCAADQYRVSHQWYDYWGQGTQVTVSS	high polyreactivity
QVQLVESGGGLVQAGGSLRFSCAASGFNFDQNAMGWYRQAPGQERELVAAITRRGGRTYYADSVKGRFTISRDNAKYTVYLQMNSLKPEDTAVYYCAALLPVHHRGYYWGQGTQVTVSS	high polyreactivity
QVQLVESGGGLVQAGGSLRFSCAASGFTIVGNTMGWYRQAPGKERELVASINTNGGSTYYADSVKGRFTISRDNAKNTVYLQMNSLKPEDTAVYYCAKDREDTYFEYEYDYWGQGTQVTVSS	low polyreactivity
QVQLVESGGGLVQAGGSLRFSCAASGGIFFRNAMGWYRQAPGKERELVAVISSGGSTYYADSVKGRFTISRDNAKNTVYLQMNSLKPEDTAVYYCAARRKRPVYTVTLHYPYNYWGQGTQVTVSS	high polyreactivity
QVQLVESGGGLVQAGGSLRFSCAASGGTFFLNVMGWYRPAPGKERELVAAITNSAGSTYYADSVKGRFTISRDNAKNTVYLQMNSLKPEDTAVYYCATDWSKVAGYTSYDYWGQGTQVTVSS	low polyreactivity
QVQLVESGGGLVQAGGSLRFSCAASGITFVYYARGWYRQAPGKERELVAAITRSGDSTYYADSVKGRFTISRDNAKNTVYLQMNSLKPEDTAVYYCAAESYYSTYQVEYYDWGQGTQVTVSS	high polyreactivity

Sequence	polyreactivity (PSR sort gate)
QVQLVESGGGLVQAGGSLRFSCAASGRIFYPYAMGWYRQAHGKERELVAAIRRSGVDTYYADSVKGRFTISRDNAKNTVYLQMNSLKPEDTAVYYCAADPYWFFPHYDSWGQGTQVTVSS	low polyreactivity
QVQLVESGGGLVQAGGSLRFSCAASGSIFKGNVMGWYRQAPGKERELVAAITWSGGSTYYADSVKGRFTISRDNAKNTVSLQMNSLKPEDTAVYNCNTRWILGRRFYYWGQGTQVTVSS	high polyreactivity
QVQLVESGGGLVQAGGSLRFSCAASGSIFWSNAMGWYRQAPGKERELVAAITTSDGSTYYADSVKGRFTISRDNAKNTVYLQMNSLKPEDTAVYYCAADTYYVSYGYYYWGQGTQVTVSS	low polyreactivity
QVQLVESGGGLVQAGGSLRFSCAASGSSFGANTMGWYRQAPGKERELVAGITSGARTYYADSVKGRFTISRDNAKNTVYLQMNSLKPEDTAVYYCAAKYAWRRYGYWGQGTQVTVSS	high polyreactivity
QVQLVESGGGLVQAGGSLRFSCAASGSTFFGNTMGWYRQAPGKERELVAAISRRGGSTYYADSVKGRFTISRDNAKNTVYLQMNSLKPEDTAVYYCAKYYHSGGYTPGKYDYWGQGTQVTVSS	high polyreactivity
QVQLVESGGGLVQAGGSLRFSCAASGSTFGTYAMGWYRQAPGKERELVAAISWSGGSTYYADSVKGRFTISRDNAKNTVYLQMNSLKPEDPAVYWGQGTQVTVSS	low polyreactivity
QVQLVESGGGLVQAGGSLRFSCAASGSTFTRYAMGWYRQAPGKERELVAAISWSGGITYYADSVNGRFTISRDNAKNTVYLQMNSLKPEDTAVYYCAAKRRYTRGGYGVDYWGQGTQVTVSS	high polyreactivity
QVQLVESGGGLVQAGGSLRFSCAASGSTVYSYAMGWYRQAPGKERELVAAITRGGRTYYADSVKGRFTISRDNAKNTVYFKMNSLKPEDTAVYSCKVVTKFTGRGYDYWGQGSQVTVSS	high polyreactivity
QVQLVESGGGLVQAGGSLRFSCAASGSTYYYNAMGWDRQAPGKERELVASISWSGGSTRYADSVKGRFTISRDNAKNTVYLQMNSLKPEDTAVYYCAARYILSKYGSGVRYNYWGQGTQVSVSS	high polyreactivity
QVQLVESGGGLVQAGGSLRFSCAASRRTFANNAMGWYRQAPGKERELVAAISSGGNTYYADSVKGRFTISRDNAKNTVYLQMNSLKPEDTAVYYCAARYWIYRSEYDYWGQGTQVTVSS	high polyreactivity
QVQLVESGGGLVQAGGSLRFSCADSGRILSLYAMGWSRQAPGKERELVASINWSDGSTYYADSVKGRFTISRDKAKNTVYLQMNSLKPEDTAVYYCNVDVRSYVAGYDYWGQGTLVTVSS	low polyreactivity
QVQLVESGGGLVQAGGSLRFSCADSGRTFRYYAMGWDIQARGKERELVAAISRGGRTNYGDSVKGRFTISRDNAKNTVYIQMNSLKPVDTAVYYCAVGGYSYYTVGYDYWGQGTQVTVSS	high polyreactivity
QVQLVESGGGLVQAGGSLRFSCSASGSIFGYNTMGWYRPAPGKERQLVAAISKSGGSTYYADSVKGRFTISRDNAKNTVYLQMNSLKPEDSAVYYCATYAKQLSPYYYWGQGIQVTVSS	high polyreactivity
QVQLVESGGGLVQAGGSLRFSFAASGINFRFNAMGWYRQAPGKEREFVAAITYSGDSTYYADSVKGRFTISRDNAKNTVFLQMNSLKREDTAVYYCAADYYAISRRIFYYWGQGTQVTVSS	low polyreactivity
QVQLVESGGGLVQAGGSLRFSSAASGSIFQSYPMGLYRPAPGKERELVAAITRSGGRTYYADSVKGRFTISRDNAKNTVYLQMNSLKPEDTAVYYCAAFGWGYGYWGQGTQVTVSS	high polyreactivity
QVQLVESGGGLVQAGGSLRIRCAASGSIFGFYALGWSRHAPGKERELVASISWRGSRTYYADSVKGRFTISRDNAKNTVYLQMNSLKPEDSAVYYCNAVAYVSSPQYVSTATGYGYWGQGTQVTVSS	high polyreactivity
